Measured values published in US20070003517A1 (UNIVERSITY OF MASSACHUSETTS, published 2007).

Experiments:
[1] = system: T1, JIP-1 (as added to the in vitro protein kinase assay)
T1 sequence: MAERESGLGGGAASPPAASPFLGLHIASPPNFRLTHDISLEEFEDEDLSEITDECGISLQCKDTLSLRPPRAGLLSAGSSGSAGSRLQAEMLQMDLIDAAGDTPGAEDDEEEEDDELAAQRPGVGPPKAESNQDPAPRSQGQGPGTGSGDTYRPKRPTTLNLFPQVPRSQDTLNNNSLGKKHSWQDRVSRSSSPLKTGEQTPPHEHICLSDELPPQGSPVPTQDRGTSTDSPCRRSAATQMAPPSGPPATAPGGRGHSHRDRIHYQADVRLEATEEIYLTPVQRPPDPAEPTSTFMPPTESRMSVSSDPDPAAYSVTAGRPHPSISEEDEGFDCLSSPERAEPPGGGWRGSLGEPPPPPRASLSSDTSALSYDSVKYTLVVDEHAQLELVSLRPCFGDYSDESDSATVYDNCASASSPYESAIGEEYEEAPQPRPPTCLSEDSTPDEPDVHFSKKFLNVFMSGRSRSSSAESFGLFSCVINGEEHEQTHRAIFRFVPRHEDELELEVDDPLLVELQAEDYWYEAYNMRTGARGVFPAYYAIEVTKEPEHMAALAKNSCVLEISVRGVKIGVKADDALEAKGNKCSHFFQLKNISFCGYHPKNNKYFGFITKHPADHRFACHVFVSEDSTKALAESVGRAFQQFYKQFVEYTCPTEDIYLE

[2] = target: T2, Flag epitope-tagged JNK1 (cell lysate) (human, UniProt P45983-2 1-384, limits assumed); assay: GST pull-down from cell lysate, anti-Flag (M2) immunoblot
T2 construct: written N-terminal here
Protocol: To test whether JIP-1 binding to JNK is also isoform-dependent, a binding assay was utilized. Cell lysates (1 ml in TLB) containing JNK1, JNK2, or p38 MAP kinase, each tagged with the Flag epitope, were incubated with 5 μg GST-fusion proteins pre-bound to 10 μl glutathione-Sepharose. […] The GST-ATF2 fusion protein contains residues 1-109 of ATF2, and the GST-Jun fusion protein contains residues 1-79 of c-Jun. After incubation for one hour at 4° C. and three washes with TLB, bound proteins were detected by protein immunoblot analysis with the M2 monoclonal antibody, which is specific for the Flag epitope. Dérijard, et al., supra; Sluss et al., supra; Gupta et al., supra. When ATF2 or c-jun GST fusion proteins were used in this assay, binding to JNK1 was greater than binding to JNK2. This finding is consistent with the results of previous studies. […] The level of binding of these fusion proteins to JNK1 was similar to the level of binding to JNK2.

T2 sequence (P45983 other isoform, or with tags, fused parts or gaps limits assumed): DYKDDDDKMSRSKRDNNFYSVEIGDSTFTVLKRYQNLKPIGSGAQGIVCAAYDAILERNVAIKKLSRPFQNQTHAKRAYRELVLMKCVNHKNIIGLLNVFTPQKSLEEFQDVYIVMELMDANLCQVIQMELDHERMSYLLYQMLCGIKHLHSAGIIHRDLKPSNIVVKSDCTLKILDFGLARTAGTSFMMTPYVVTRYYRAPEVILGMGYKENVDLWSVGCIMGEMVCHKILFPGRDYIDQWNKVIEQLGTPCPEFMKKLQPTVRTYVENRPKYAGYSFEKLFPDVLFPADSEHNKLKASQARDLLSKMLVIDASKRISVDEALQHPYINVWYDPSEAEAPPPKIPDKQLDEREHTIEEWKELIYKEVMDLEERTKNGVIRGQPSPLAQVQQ

For ERK2 (immune complex from CHO cells), the “phosphorylation of substrate (myelin basic protein) by ERK, immune complex kinase assay” value [1] was “JIP-1 caused no significant change in the phosphorylation of substrates by the related MAP kinases p38 and ERK2”.

JNK (immune complex from CHO cells) was tested, and the “phosphorylation of c-Jun (GST-Jun) by JNK, immune complex kinase assay” value [1] was “JIP-1 markedly inhibited the phosphorylation of c-Jun by JNK”.

With p38 (immune complex from CHO cells) the “phosphorylation of substrate (GST-ATF2) by p38, immune complex kinase assay” value [1] was “JIP-1 caused no significant change in the phosphorylation of substrates by the related MAP kinases p38 and ERK2”.

B1: GST-JIP-1 fusion protein containing residues 203-281 of JIP-1 (other)
chain: PHEHICLSDELPPQGSPVPTQDRGTSTDSPCRRSAATQMAPPSGPPATAPGGRGHSHRDRIHYQADVRLEATEEIYLTP
notes: not shown: glutathione-S-transferase (GST) of vector pGEX-3X
B1: no binding [2].

B2: GST-JIP-1 fusion protein containing residues 164-240 of JIP-1 (other)
chain: PQVPRSQDTLNNNSLGKKHSWQDRVSRSSSPLKTGEQTPPHEHICLSDELPPQGSPVPTQDRGTSTDSPCRRSAATQ
notes: as for B1
B2: no binding [2].
